Assay results as given in patent EP4678181A1.

What was measured:
[1] = target: biotin-labeled human interleukin-2 receptor alpha subunit (ACROBiosystems) (human) (UniProt P01589); experiment: SPR (Biacore T200), biotin-labeled receptor subunit on streptavidin chip; relative to aldesleukin
[2] = target: T1, biotin-labeled human interleukin-2 receptor beta subunit (ACROBiosystems) (human) (UniProt P14784); experiment: as above
T1 sequence (biotin-labeled (site not stated), looked up): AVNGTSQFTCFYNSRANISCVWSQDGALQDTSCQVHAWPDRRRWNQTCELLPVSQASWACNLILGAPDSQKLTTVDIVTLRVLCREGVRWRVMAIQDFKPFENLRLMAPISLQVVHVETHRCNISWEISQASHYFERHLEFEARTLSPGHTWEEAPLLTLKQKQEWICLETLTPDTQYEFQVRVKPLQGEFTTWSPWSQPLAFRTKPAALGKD

[3] = target: T2, interleukin-2 beta receptor (SYMANSIS, #4122H) to which a human immunoglobulin Fc region was linked (UniProt P14784); experiment: SPR (Biacore T200), receptor-Fc captured by anti-human Ig antibody on CM5 chip; relative to analog 1 (aldesleukin)
T2 sequence (looked up): T1 sequence (biotin-labeled (site not stated), looked up)

[4] = target: interleukin-2 alpha receptor (SYMANSIS, #4102H) to which a human immunoglobulin Fc region was linked (UniProt P01589); experiment: as above

Measured: Relative binding affinity (%)

Sequence of interleukin-2 analog 1 (aldesleukin) (P60568 other isoform, or with tags, fused parts or gaps): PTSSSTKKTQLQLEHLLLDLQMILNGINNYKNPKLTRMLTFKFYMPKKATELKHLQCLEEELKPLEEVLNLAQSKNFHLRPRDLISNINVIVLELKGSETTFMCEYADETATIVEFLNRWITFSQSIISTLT
Sequence of biotin-labeled human interleukin-2 receptor alpha subunit (ACROBiosystems) (human) (P01589 22-213): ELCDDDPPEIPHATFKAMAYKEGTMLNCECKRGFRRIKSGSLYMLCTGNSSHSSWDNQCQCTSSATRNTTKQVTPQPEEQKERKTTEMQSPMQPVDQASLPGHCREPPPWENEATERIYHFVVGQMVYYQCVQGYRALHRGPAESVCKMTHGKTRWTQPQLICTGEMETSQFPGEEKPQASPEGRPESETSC
Sequence of interleukin-2 alpha receptor (SYMANSIS, #4102H) to which a human immunoglobulin Fc region was linked (P01589 22-213 limits assumed): as the sequence (P01589 22-213) above

interleukin-2 analog 1 (aldesleukin) (from UniProt P60568 22-153) (ligand)
100%: [1] | [2] | [3] | [4]
